# According to PMC4270374:
# B1: AfUGM (wild-type) (Aspergillus fumigatus) (protein)
# chain: MTHPDISVDVLVIGAGPTGLGAAKRLNQIDGPSWMIVDSNETPGGLASTDVTPEGFLYDVGGHVIFSHYKYFDDCLDEALPKEDDWYTHQRISYVRCQGQWVPYPFQNNISMLPKEEQVKCIDGMIDAALEARVANTKPKTFDEWIVRMMGTGIADLFMRPYNFKVWAVPTTKMQCAWLGERVAAPNLKAVTTNVILGKTAGNWGPNATFRFPARGGTGGIWIAVANTLPKEKTRFGEKGKVTKVNANNKTVTLQDGTTIGYKKLVSTMAVDFLAEAMNDQELVGLTKQLFYSSTHVIGVGVRGSRPERIGDKCWLYFPEDNCPFYRATIFSNYSPYNQPEASKKLPTMQLADGSRPQSTEAKEGPYWSIMLEVSESSMKPVNQETILADCIQGLVNTEMLKPTDEIVSTYHRRFDHGYPTPTLEREGALTQILPKLQDKDIWSRGRFGSWRYEVGNQDHSFMLGVEAVDNIVNGAVELTLNYPDFVNGRQNTERRLVDGAQVFAKSKAQ
# B2: MtUGM (Mycobacterium tuberculosis H37Rv) (protein)
# chain: MQPMTARFDLFVVGSGFFGLTIAERVATQLDKRVLVLERRPHIGGNAYSEAEPQTGIEVHKYGAHLFHTSNKRVWDYVRQFTDFTDYRHRVFAMHNGQAYQFPMGLGLVSQFFGKYFTPEQARQLIAEQAAEIDTADAQNLEEKAISLIGRPLYEAFVKGYTAKQWQTDPKELPAANITRLPVRYTFDNRYFSDTYEGLPTDGYTAWLQNMAADHRIEVRLNTDWFDVRGQLRPGSPAAPVVYTGPLDRYFDYAEGRLGWRTLDFEVEVLPIGDFQGTAVMNYNDLDVPYTRIHEFRHFHPERDYPTDKTVIMREYSRFAEDDDEPYYPINTEADRALLATYRARAKSETASSKVLFGGRLGTYQYLDMHMAIASALNMYDNVLAPHLRDGVPLLQDGA
# Substrate: O=c1ccn([C@@H]2O[C@H](COP(=O)(O)OP(=O)(O)O[C@H]3O[C@@H]([C@H](O)CO)[C@H](O)[C@H]3O)[C@@H](O)[C@H]2O)c(=O)[nH]1
# Assay: purified protein
# [1] = 25 mM HEPES, 125 mM NaCl, 20 mM dithionite, pH 7.5, 37 °C
Protein,Km [1] [µM],kcat [1] [s⁻¹],kcat/Km [1] [M⁻¹ s⁻¹],"Km (pH 7.5, 37.0 °C) [µM]","kcat/Km (pH 7.5, 37.0 °C) [M⁻¹ s⁻¹]"
B1,110 ± 15,72 ± 4,650000 ± 90000,–,–
B2,–,–,–,78 ± 16,910000 ± 150000
